Among the data in publication PMC7948961, “Proteomic identification and validation of novel interactions of the putative tumor suppressor PRELP with membrane proteins including IGFI-R and p75NTR” (The Journal of Biological Chemistry, 2021) are Kd values, retold here.

The chains are these.
B1: Recombinant PRELP (rPRELP), human PRELP with a C-terminal FLAG tag, from Mimic Sf9 cells (natural protein, UniProt P51888 21-382, looked up)
chain: QPTRRPRPGTGPGRRPRPRPRPTPSFPQPDEPAEPTDLPPPLPPGPPSIFPDCPRECYCPPDFPSALYCDSRNLRKVPVIPPRIHYLYLQNNFITELPVESFQNATGLRWINLDNNRIRKIDQRVLEKLPGLVFLYMEKNQLEEVPSALPRNLEQLRLSQNHISRIPPGVFSKLENLLLLDLQHNRLSDGVFKPDTFHGLKNLMQLNLAHNILRKMPPRVPTAIHQLYLDSNKIETIPNGYFKSFPNLAFIRLNYNKLTDRGLPKNSFNISNLLVLHLSHNRISSVPAINNRLEHLYLNNNSIEKINGTQICPNDLVAFHDFSSDLENVPHLRYLRLDGNYLKPPIPLDLMMCFRLLQSVVI
notes: Proline and arginine-rich end leucine-rich repeat protein (PRELP), human; secreted into the supernatant; No cleavage of the FLAG tag is described; source: Mimic Sf9 (baculovirus), purified from the supernatant (DDDDK-tagged Protein Purification Gel twice, Benzonase, SEC)

The target of assay [1] is T1, Recombinant, soluble IGFI-R (rsIGFI-R), extracellular domain of human IGFI-R (residues 1-905) with a … (human, UniProt P08069 31-935).
T1 construct: Insulin-like growth factor 1 receptor, human, extracellular domain, residues 1-905; 31-935 of the precursor P08069; also called extracellular domain of IGFI-R; source: ExpiCHO, transiently transfected, purified from the supernatant (Ni-NTA, SEC)
The experiment in a line: SPR; Biacore 2000; rPRELP immobilised by amine coupling on CM5 at around 4000 RU; rsIGFI-R or rsp75NTR injected at 30 μl/min; 10 mM HEPES pH 7.5, 150 mM NaCl, 0.05% Tween-20, 15 °C; KD from fitting the equilibrium curve, three independent measurements. The settings on record: both partners purified. A general note: In SPR one partner is held on a chip, and binding of the other changes the refractive index at the surface.

Assay [2] concerns the target B1. The assay is described as above. To be noted: both partners purified.

Take B1: in assay [1], the dissociation constant Kd (commonly the constant that tells how readily two partners part at equilibrium) worked out at 6.8 µM.

B2: Recombinant, soluble p75NTR (rsp75NTR), extracellular domain of human p75NTR (residues 1-161) with a C-terminal hexahistidine tag (domain or fragment)
chain: KEACPTGLYTHSGECCKACNLGEGVAQPCGANQTVCEPCLDSVTFSDVVSATEPCKPCTECVGLQSMSAPCVEADDAVCRCAYGYYQDETTGRCEACRVCEAGSGLVFSCQDKQNTVCEECPDGTYSDEANHVDPCLPCTVCEDTERQLRECTRWADAECE
modifications: Printed residues 1-161 are read as mature numbering (signal 1-28, offset +28): 161+28=189 falls at the end of the fourth cysteine-rich repeat, and the same paper's IGFI-R 1-905 is mature numbering …
On to B2, for which, in assay [2], the dissociation constant (Kd) was determined as 12.1 µM.
